Experimental data as given in publication doi:10.1101/2020.07.08.194076v1.

B1: SlG2 (Solanum lycopersicum) (protein)
chain: IATNEKVVMEKEEFNFKVYVAEKAICVNKALDEAIMVKDPPKIHEAMRYSLLAGGKRVRPMLCLAACELVGGNQGNAMAAACAVEMIHTMSLIHDDLPCMDDDDLRRGKPTNHKVYGEDVAVLAGDALLAFAFEYLATATTGVPPSRILVAVAELAKSVGTEGLVAGQVADLACTGNPNVGLEMLEFIHIHKTAALLEASVVIGAILGGGADEEVDKLRRFAQCIGLLFQVVDDILDVTKSSSELGKTAGKDLAVDKTTYPKLLGLEKAKEFAAELNGEAKQQLAAFDSHKAAPLIALADYIANRQN
B2: SlG1 (Solanum lycopersicum) (protein)
chain: VSSKAEKFILPEFEFQEYMVTKAIKVNKALDEAIPMQEPIKVHEAMRYSLLAGGKRVRPILCMASCEVVGGDESLAIPAACAVEMIHTMSLVHDDLPCMDNDDLRRGKPTNHKIFGENTAVLAGDALLSLAFEHVATKTQNVPPQRVVQAIGELGSAVGSEGLVAGQIVDLASEGKQVSLTELEYIHHHKTSKLLEAAVVCGAIMGGGNEVDVERMRSYARCIGLLFQVVDDILDVTKSSDELGKTAGKDLITDKATYPKLMGLEKARQYAGELMAKAMNELSYFDYAKAAPLYHIASYIANRQN
B3: AtG11 (Arabidopsis thaliana) (protein)
chain: SSIVSSSVVTKEDNLRQSEPSSFDFMSYIITKAELVNKALDSAVPLREPLKIHEAMRYSLLAGGKRVRPVLCIAACELVGGEESTAMPAACAVEMIHTMSLIHDDLPCMDNDDLRRGKPTNHKVFGEDVAVLAGDALLSFAFEHLASATSSDVVSPVRVVRAVGELAKAIGTEGLVAGQVVDISSEGLDLNDVGLEHLEFIHLHKTAALLEASAVLGAIVGGGSDDEIERLRKFARCIGLLFQVVDDILDVTKSSKELGKTAGKDLIADKLTYPKIMGLEKSREFAEKLNREARDQLLGFDSDKVAPLLALANYIAYRQN

What was measured:
purified protein [1] = substrate: C=C(C)CCO[P@@](=O)(O)OP(=O)(O)O; experiment: purified protein; conditions: co-substrate 100 µM DMAPP
purified protein [2] = substrate: CC(C)=CCOP(=O)(O)OP(=O)(O)O; experiment: purified protein; conditions: co-substrate 100 µM IPP

| Protein | Km (purified protein [1]) | Km (purified protein [2]) |
| --- | --- | --- |
| B1 | 79.75 ± 8.33 µM | 49.55 ± 5.31 µM |
| B2 | 74.18 ± 7.55 µM | 31.82 ± 2.92 µM |
| B3 | 38.49 ± 4.94 µM | 32.86 ± 4.86 µM |
